Read-outs that look alike come from different tables or passages of the source.

Data set [1] can be described thus: Stability of coelenterazines in reporter reagent buffer (T90). The following applies: time for luminescent signal to decay by 10% at 22° C.; read with OgLuc variant IV lysate.
Data set [2] has as its system HEK293 cells. Briefly: Toxicity of coelenterazines in HEK293 cells (CELLTITER-GLO). To be noted: 24 hrs after compound addition.
The next data set concerns the target T1, L27V02 enzyme (Oplophorus gracilirostris, UniProt Q9GV45, A31E/A60N/A81I/F95D/I117V/K70R/L54V/L99Q/M102K/N193R/P142E/Q151K/Q38R/Q45L/V71I/Y165I).
T1 construct: The N-terminus of the OgLuc variant L27V is methionine, valine and phenylalanine, i.e., MVF; made in house
Briefly: Luminescence of compounds with purified L27V02 enzyme. The data set is classed as biochemical. The following applies: 20 μM compound, 36 pM L27V02, pH 7, 3 min. The procedure: Compounds PBI-4525, PBI-4540 and PBI-4541 were screened for their ability to detect luminescence. […] The assay reagent was then mixed with 36 pM purified L27V02 enzyme (described in Example 25B), in DMEM without Phenol Red and 0.1% PRIONEX®. As a control, assay buffer with 20 μM PBI-3939 or PBI-4528 was used. Luminescence was measured as previously described 3 min after the assay reagent was added to the enzyme mixture.

Data set [3] relates to HEK293 cells. To be noted: human, 24 h.
Data set [4] can be described thus: Brightness and relative specificity of 9B8 and 9B8 opt+K33N variants in E. coli lysates. The data set is classed as biochemical. As to the method: Additional variants with improved relative specificity to novel PBI-3939 were generated as described previously by saturating amino acid positions 18, 68, 72, 75, and 90 in variant 9B8. […] Relative specificity was determined from the ratio of the luminescence of the variant with PBI-3939 to the luminescence of the variant with native coelenterazine, normalized to the ratio of corresponding luminescence of 9B8. Table 8 lists 9B8 variants (“Variant”) with at least 1.1× fold-increase in relative specificity for PBI-3939. […] 9B8 variants with amino acid substitutions K, D, F, G, Y, W, and H at position 18 had the highest fold improvement in relative specificity.
A new OgLuc library was created using 9B8opt+K33N as a starting template. The random library was created using DIVERSIFY® PCR Random Mutagenesis Kit (ClonTech; Catalog #630703). Condition 5 (as listed in the user manual) was used to generate additional variants, and the average mutation rate was calculated to be 2.6 mutations per gene by compiling sequence data from 83 randomly selected clones. This PCR library was cloned into the pF4Ag-based, non-fusion vector background described previously and the sandwich background, i.e., Id-OgLuc-HT7 (described in Example 45). Variants in the pF4Ag-base non-fusion vector background are designated with (NF). Variants in the sandwich vector background are designated with (F). In order to clone the PCR product into both vectors, an amino acid, i.e., a glycine, was appended to the variant sequence in pF4Ag, generating a new position 170 in the OgLuc variant (“170G”). The 170G is present in the sandwich construct, but in this case is considered part of the linker between OgLuc and HT7. For each library, 4,400 E. coli clones were assayed as described previously with the following exceptions. […] The assay buffer contained 100 mM MES pH 6.0 instead of HEPES, and 35 mM thiourea. The assay volumes were as follows: 10 μL cells, 40 μL lysis buffer, and 50 μL assay buffer.
(§1) Based on the above data, further combination variants were designed and generated (see Table 10) in the context of the pF4Ag-based non-fusion vector background without the 170G. The variants were analyzed in E. coli, HEK293 and NIH3T3 cells as described above and compared to 9B8 opt+K33N. The variants were also examined for luminescence with native coelenterazine.
E. coli lysates containing the variants were prepared and analyzed as described previously. Luminescence generated from the lysates was measured using the novel PBI-3939 and native coelenterazine as substrates. The luminescence of the variants was normalized to the luminescence generated by 9B8 opt (Table 12). The relative specificity of the variants for PBI-3939 and native coelenterazine was calculated by dividing the luminescence of the variants using PBI-3939 as a substrate with the luminescence of the variants using native coelenterazine as a substrate (Table 12).

Data set [5] can be described thus: Luminescence of OgLuc variants expressed in NIH3T3 cells. Format: cell-based. The procedure: (§2) The PCR library in the pF4Ag-based non-fusion background was screened for additional variants with increased luminescence compared to 9B8 opt+K33N+170G (SEQ ID NOs: 68 and 69). Selected variants were then assayed in HEK293 and NIH3T3 cells. For each cell type, 15,000 cells were plated and grown overnight at 37° C. The next day, the cells were transfected as described in Example 25 with 10 ng pGL4.13 (Promega Corp.) as a transfection control and 100 ng of the OgLuc test DNA. The media was removed, and the cells were lysed with 100 μL of lysis buffer as described in Example 25 except the lysis buffer contained 100 mM MES pH 6.0 instead of HEPES, and luminescence measured using a GLOMAX® Luminometer.
as §1
(§3) The brightness of the variants expressed in HEK293 and NIH3T3 cells was measured as described previously. The luminescence of the variants was normalized to the luminescence generated by 9B8 opt (Table 27).
(§4) The variants 9B8 opt+K33N+T39T+K43R+Y68D (“V2”; SEQ ID NOs: 92 and 93), 9B8 opt+K33N+L27V+K43R+Y68D (SEQ ID NOs: 339 and 340), 9B8 opt+K33N+L27V+T39T+K43R+S66N (SEQ ID NOs: 341 and 342), and 9B8 opt+K33N+L27V+T39T+K43R+Y68D (“L27V”; SEQ ID NOs: 88 and 89) were subcloned into the Id-OgLuc-HT7 sandwich background as described above and assayed in HEK293 and NIH3T3 cells as described above. The luminescence generated by the sandwiched variants were compared to the luminescence generated by the […] sandwich (SEQ ID NOs: 59 and 60) (Table 38). The L27V sandwich (SEQ ID NOs: 90 and 91) and V2 sandwich (SEQ ID NOs: 94 and 95) had at least 1.3× fold-increase in luminescence in HEK293 and NIH3T3 cells.
(§5) The sandwich and non-sandwich versions of the variants V2, 9B8 opt+K33N+L27V+K43R+Y68D, 9B8 opt+K33N+L27V+T39T+K43R+S66N, and L27V were assayed in HEK293 and NIH3T3 cells as described in Example 37. The luminescence generated by the non-sandwiched variants was compared to the luminescence generated by the sandwiched variants (Table 39).

The nature of data set [6]: Luminescence of OgLuc variants expressed in HEK293 cells. The data set is classed as cell-based, human. As to the method:
as §2, §1, §3, §4, §5

The nature of data set [7]: Enzyme kinetics of OgLuc variants (Km, Vmax). Format: biochemical, E. coli. The following applies: PBI-3939, average of three replicates. The procedure: Using methods known in the art, enzyme kinetic assays measuring luminescence were performed with the lysates of E. coli containing N and the IV variants 15C1, 9B8, 9F6, and 9A3. […] Two fold serial dilutions of PBI-3939 in the assay buffer described previously in Example 26 were assayed with the diluted lysates. […] Variants 9B8 and 9F6 had higher Km values compared to IV while Km values for the other variants were unchanged.
Luminescence was measured on a TECAN® INFINITE® F500 luminometer.
The enzyme kinetics values were determined for the OgLuc variants as described previously, except luminescence was measured using a GLOMAX® luminometer. Three replicates were used for each variant.

Data set [8] is classed as biochemical, E. coli. As to the method:
The signal stability of 15C1 with PBI-3945 and 9B8 with PBI-3889 was measured and compared to IV. E. coli containing plasmid DNA encoding 15C1, 9B8, or IV were grown and induced as described previously in 8-well replicates. Cells were lysed using a lysis buffer containing of 300 mM HEPES pH 8.0, 0.3× Passive Lysis Buffer (“PLB”; Promega Corp. Cat. No. E194A), 0.3 mg/mL lysozyme, and 0.003 U/μL RQ1 DNase. Lysates were diluted 1:1000 in lysis buffer and measured for luminescence using a TECAN® INFINITE® F500 luminometer. Measurements were taken immediately after the addition to 10 μL of diluted lysate sample of 50 μL of “Glo” 0.5% TERGITOL assay buffer (“0.5% TERGITOL”), which contained 150 mM KCl, 1 mM CDTA, 10 mM DTT, 100 mM thiourea, 0.5% TERGITOL® NP-9 (v/v), and 20 μM of either novel coelenterazines PBI-3945 or PBI 3889.
The signal stability of the variants was determined by re-reading the plate every 30 seconds for a length of time after the addition of the assay buffer to the sample. The signal half-life was determined from these measurements using methods known in the art. The average signal half-life was compared between the variants and IV. […] At t=10 min, luminescence for 15C1 with PBI-3945 and 9B8 with PBI-3889 were equivalent.
E. coli lysates containing the variants were prepared and analyzed as described previously except the assay buffer contained 0.25% TERGITOL® NP-9 (v/v), 100 mM MES pH 6.0, 1 mM CDTA, 150 mM KCl, 35 mM thiourea, 2 mM DTT, and 20 μM PBI-3939.

Data set [9] is classed as physicochemical, E. coli. To be noted: 60° C., assay buffer 100 mM MES pH 6.0. The procedure:
Aliquots were removed at different time-points and placed on dry ice to freeze the samples. […] Luminescence was measured on a GLOMAX® luminometer (Promega Corp.).
The thermal stability of the variants at 60° C. was examined as described above, except the assay buffer contained 100 mM MES pH 6.0 instead of HEPES.

Where [10] appears, read: relative specificity for PBI-3939.

In the case of `O=c1c(Cc2ccccc2)nc2c(Cc3ccccc3)[nH]c(-c3ccccc3)cn1-2` [Coelenterazine hh, bis-deoxycoelenterazine, reference compound], in data set [1], the “Stability (pH 8) (T90 in hrs)” value is 2.0 hrs. The “Viability (normalized to vehicle (DMSO) control) (%)” value in the data set with HEK293 cells [2] was determined as 87%.

As for `Cn1ccnc1Cc1nc2c(Cc3ccccc3)[nH]c(-c3ccccc3)cn-2c1=O` [PBI-4525, 8-benzyl-2-((1-methyl-1H-imidazol-2-yl)methyl)-6-phenylimidazo[1,2-a]pyrazin-3(7H)-one], the RLU at L27V02 enzyme is 20,655 RLU.

As to `O=c1c(Cc2ccco2)nc2c(Cc3ccccc3)[nH]c(-c3ccc(O)cc3)cn1-2` [PBI-3945], the “Stability (pH 8) (T90 in hrs)” value in [1] is 3.3 hrs. Also, the “Viability (normalized to vehicle (DMSO) control) (%)” value with HEK293 cells [2] was 100%.

Regarding `O=c1c(Cc2ccc(O)cc2)nc2c(Cc3ccccc3)[nH]c(-c3ccccc3)cn1-2` [PBI-3840, 8-benzyl-2-(4-hydroxybenzyl)-6-phenylimidazo[1,2-a]pyrazin-3(7H)-one], in the data set with HEK293 cells [3], the “Viability (normalized to vehicle (DMSO) control) (%)” value is on record as 60%.

In the case of `Cc1[nH]c(-c2ccccc2)cn2c(=O)c(Cc3ccc(O)cc3)nc1-2` [PBI-3896, 2-(4-hydroxybenzyl)-8-methyl-6-phenylimidazo[1,2-a]pyrazin-3(7H)-one], the “Stability (pH 8) (T90 in hrs)” value is 2.8 hrs.

With `Oc1ccc(Cc2nc3c(Cc4ccccc4)nc(-c4ccc(O)cc4)cn3c2O)cc1` [Native coelenterazine, coelenterazine, reference compound], the “Stability (pH 8) (T90 in hrs)” value is reported as 1.7 hrs. Moreover, in the data set on HEK293 cells [3], the “Viability (normalized to vehicle (DMSO) control) (%)” value was 100%.

Regarding `O=c1c(Cc2cccs2)nc2c(Cc3ccccc3)[nH]c(-c3ccc(O)cc3)cn1-2` [PBI-4002], in [1], the “Stability (pH 8) (T90 in hrs)” value is recorded as 3.5 hrs. In addition, the “Viability (normalized to vehicle (DMSO) control) (%)” value in the data set on HEK293 cells [2] came to 100%.

Regarding `O=c1c(Cc2cccs2)nc2c(Cc3ccccc3)[nH]c(-c3ccccc3)cn1-2` [PBI-3889, 8-benzyl-6-phenyl-2-(thiophen-2-ylmethyl)imidazo[1,2-a]pyrazin-3(7H)-one], the “Stability (pH 8) (T90 in hrs)” value is given as 2.9 hrs. The “Viability (normalized to vehicle (DMSO) control) (%)” value with HEK293 cells [3] is 90%.

B1: L27V, K43R, Y68D: 9B8 opt+K33N+L27V+K43R+Y68D (protein)
chain: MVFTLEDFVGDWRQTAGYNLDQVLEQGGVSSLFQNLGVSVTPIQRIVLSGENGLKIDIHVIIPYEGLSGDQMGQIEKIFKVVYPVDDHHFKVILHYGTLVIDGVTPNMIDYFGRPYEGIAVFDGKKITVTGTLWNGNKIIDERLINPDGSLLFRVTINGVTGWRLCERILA
In general, Km refers to the concentration of substrate that gives half-maximal velocity. On to B1, for which the Fold over coelenterazine in data set [4] (bacterial lysates, PBI-3939 luminescence divided by native coelenterazine luminescence) is given as 110. The “Fold over 9B8” value in [4] (bacterial lysates, luminescence normalized to 9B8 opt) was found to be 1.3. In [4] (in the three cell types examined), the “fold-increase in relative specificity over 9B8 opt+K33N” value is given as 5 ×. For the same molecule, in data set [4] (luminescence, PBI-3939), the “Fold over 9B8 opt + K33N: E. coli” value came out at 1.2. In addition, the “Fold over Native Coelenterazine: E. coli” value in data set [4] (setting [10]) was 98.3. The “Fold-Decrease in Luminescence in the Presence of Sandwich Background: NIH 3T3 cells” value in data set [5] is 22. The “Fold over 9B8 opt + K33N: NIH3T3” value in data set [5] (luminescence, PBI-3939) was found to be 0.8. The “Increase in Luminescence: NIH3T3” value in data set [5] (normalized to 9B8 opt) is listed as 1.5. Further, the “Fold over Native Coelenterazine: NIH3T3” value in data set [5] (setting [10]) is reported as 98. Besides, in [6], the “Fold-Decrease in Luminescence in the Presence of Sandwich Background: HEK 293” value is on record as 8. Moreover, the “Fold over 9B8 opt + K33N: HEK293” value in [6] (luminescence, PBI-3939) was 0.9. The “Increase in Luminescence: HEK293” value in data set [6] (normalized to 9B8 opt) was 1.6. Moreover, in data set [6] (setting [10]), the “Fold over Native Coelenterazine: HEK293” value is listed as 101. In data set [7], the Michaelis constant (Km) amounted to 13.7 µM and the Vmax is 130,000,000 RLU/0.5 sec. For the same molecule, in data set [8], the “signal half life” value was found to be 2.03 h. The molecule further came in with a ½ life hours in data set [9] of 23.2 h.

The values above are taken from patent US8809529B2, “Imidazo[1,2-α]pyrazine derivatives” (Promega Corporation, priority 2010, dated 2014).
